These are literature values, as cited in PMC8820802.

The data set has as its system streptavidin. To be noted: 50 mM Tris-HCl pH 7.6, 10 mM MgCl2, 100 mM KCl, 10% glycerol, 0.05% NP-40, protease inhibitor; HEK293T lysate on streptavidin-Sepharose, 16 h, 4 C.

Take S1 aptamer: the Kd was 79 nM.
For the substance S1m aptamer, the Kd is 29 nM.

The term Kd denotes the equilibrium constant for the complex coming apart.
